Reference: article PMC5394233, “Structural and functional analysis of the human POT1-TPP1 telomeric complex” (Nature Communications, 2017)
Values belong to the molecule of their own block, whether it stands above or below them.

Legend:
[1] = target: human POT1 C-terminus (POT1C), residues 330-634, wild type (human) (UniProt Q9NUX5); assay: ITC; MicroCal iTC200; 100 uM TPP1(PBD) injected into the cell with 10 uM POT1C; 25 C; 25 mM Hepes pH 7.5, 0.1 M KCl, 5% glycerol, 1 mM TCEP; 16 injections of 2.47 ul; proteins purified separately
[2] = target: human POT1C (330-634) A532P (human) (UniProt Q9NUX5); assay: as above
[3] = target: human POT1C (330-634) C591W (human) (UniProt Q9NUX5); assay: as above
[4] = target: human POT1C (330-634) L343F (human) (UniProt Q9NUX5); assay: as above
[5] = target: human POT1C (330-634) P446Q (human) (UniProt Q9NUX5); assay: as above
[6] = target: human POT1C (330-634) P475L (human) (UniProt Q9NUX5); assay: as above
[7] = target: human POT1C (330-634) Q623H (human) (UniProt Q9NUX5); assay: as above
[8] = target: human POT1C (330-634) R477T (human) (UniProt Q9NUX5); assay: as above
[9] = target: T1, human POT1C (residues 330-634) Q623H (human, UniProt Q9NUX5 330-634, Q623H); assay: ITC; 100 uM TPP1(PBD) injected into the cell with 10 uM POT1C; 25 °C; 25 mM Hepes pH 7.5, 0.1 M KCl, 5% glycerol, 1 mM TCEP; 16 injections of 2.47 ul; three independent experiments; settings: both partners purified
T1 construct: POT1, human, C-terminal portion (OB-fold and HJR domain), residues 330-634, with the germline melanoma-associated mutation Q623H; PDB 5UN7 holds the wild-type parent with the same limits; The methods describe tag cleavage by TEV for the co-purified complex; For ITC the proteins were purified separately; also called POT1C Q623H; source: E. coli ScarabXpress T7 lac, purified (Ni-NTA, Poros HS/HQ, …)
T1 sequence (looked up): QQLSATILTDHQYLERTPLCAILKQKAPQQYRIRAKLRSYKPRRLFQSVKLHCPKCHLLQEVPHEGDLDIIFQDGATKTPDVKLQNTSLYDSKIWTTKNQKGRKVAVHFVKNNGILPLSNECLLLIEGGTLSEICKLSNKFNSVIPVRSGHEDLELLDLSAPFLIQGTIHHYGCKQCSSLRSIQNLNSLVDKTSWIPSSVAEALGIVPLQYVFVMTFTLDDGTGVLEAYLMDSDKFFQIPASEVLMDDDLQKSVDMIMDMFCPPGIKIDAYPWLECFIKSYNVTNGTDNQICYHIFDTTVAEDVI

Chain of human POT1C (330-634) L343F (human) (Q9NUX5 330-634 L343F): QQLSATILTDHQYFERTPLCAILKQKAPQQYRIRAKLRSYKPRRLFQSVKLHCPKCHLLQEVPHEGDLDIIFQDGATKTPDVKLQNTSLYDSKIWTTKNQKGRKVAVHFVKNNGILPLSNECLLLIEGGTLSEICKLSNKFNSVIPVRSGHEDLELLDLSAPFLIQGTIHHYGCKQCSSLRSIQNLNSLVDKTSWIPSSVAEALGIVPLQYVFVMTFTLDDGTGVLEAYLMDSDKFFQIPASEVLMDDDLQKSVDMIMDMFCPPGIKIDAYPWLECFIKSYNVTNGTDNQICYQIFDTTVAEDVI

Kd [1]: 120 nM
Kd [2]: 117 nM
Kd [3]: 870 nM
Kd [4]: 114 nM
Kd [5]: 289 nM
Kd [6]: 164 nM
Kd [7]: 471 nM
Kd [8]: 123 nM
Molecule: human TPP1 POT1-binding domain, TPP1(PBD), residues 255-337 (from UniProt Q96AP0 255-337) (domain or fragment)

Kd [9]: 472 nM
B1: human TPP1(PBD), residues 255-337 (domain or fragment)
chain: SQLLDEMREDQEHQGALVCLAESCLTLEGPCTAPPVTHWAASRCKATGEAVYTVPSSMLCISENDQLILSSLGPCQRTQGPEL
